For the assay, the target named is T1, recombinant mouse CCR5 (MyBioSource) (mouse, UniProt P51682 1-354, limits assumed).
T1 construct: Coated on ELISA plates at 20 nM; also called mrCCR5
Nature of the assay: competition ELISA: hNAMPTcif 0-100 nM against 100 nM hrNAMPT(1) on coated recombinant mouse CCR5. How it is done:
hrNAMPT competitive binding to mrCCR5: ELISA plates (Medium binding, Greiner Bio-One) were coated with 1% BSA or 20 nM of recombinant mouse CCR5 (MyBioSource) in PBS overnight at 4° C. Then, wells were blocked for 1 h at room temperature with 1% BSA in PBS containing 0.05% Tween-20 (PBS-T). Wells were washed 3 times with PBS-T and further incubated with hNAMPTcif at increasing concentration (0 nM to 100 nM) for 1 h in PBS-T with 0.1% BSA containing 100 nM hrNAMPT (1) (Peprotech). Bound hrNAMPT (1) molecules were detected using a biotinylated antibody for NAMPT and HRP-streptavidin (Human PBEF/Visfatin DuoSet ELISA, R&D Systems). Signals obtained on BSA-coated wells were used to remove non-specific binding for each hrNAMPT concentrations to obtain specific binding values. Specific binding data were fitted by non-linear regression with Prism 7 to obtain the half maximal inhibitory concentration (IC50) of hNAMPTnif using A450nm=A450nmMin+(A450nmMax−A450nmMin)/(1+10\hat{ }(X-LogIC50)).
In general terms: An ELISA detects its analyte on a solid surface through an enzyme-linked reagent.

We go through one molecule from patent US20250257332A1 (MONASH UNIVERSITY, published 2025).

T1 sequence (P51682 whole entry): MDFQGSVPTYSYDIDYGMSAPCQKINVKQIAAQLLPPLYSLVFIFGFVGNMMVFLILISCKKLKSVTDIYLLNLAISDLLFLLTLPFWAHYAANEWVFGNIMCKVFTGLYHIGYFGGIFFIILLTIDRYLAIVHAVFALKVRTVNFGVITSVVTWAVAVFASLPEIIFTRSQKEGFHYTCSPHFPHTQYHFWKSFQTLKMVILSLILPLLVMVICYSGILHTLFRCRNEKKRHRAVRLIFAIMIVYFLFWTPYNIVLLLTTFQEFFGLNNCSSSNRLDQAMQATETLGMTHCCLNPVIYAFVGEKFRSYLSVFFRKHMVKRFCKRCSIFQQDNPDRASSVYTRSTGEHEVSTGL

B1: human NAMPT cytokine finger (hNAMPTcif; NAMPT402-491) (ligand)
chain: SYVVTNGLGINVFKDPVADPNKRSKKGRLSLHRTPAGNFVTLEEGKGDLEEYGQDLLHTVFKNGKVTKSYSFDEIRKNAQLNIELEAAHH
notes: also called hNAMPTnif
Usually IC50 stands for the concentration at which inhibition is half-maximal. Turning to B1, the IC50 stood at 21.5 nM.
